Measurements taken from patent US20260256934A1 (Daiichi Sankyo, published 2026).

Legend:
[1] = biological target: T1, Recombinant Human Fc gammaRIIA/CD32a (R167) Protein (R&D systems) (human, UniProt P12318 36-218); assay: SPR (Biacore T200); FcγRIIa immobilised directly on CM5, antibody as analyte 0.9-4.7 µM
T1 construct: Bought protein; also called human FcγRIIa
T1 sequence (looked up): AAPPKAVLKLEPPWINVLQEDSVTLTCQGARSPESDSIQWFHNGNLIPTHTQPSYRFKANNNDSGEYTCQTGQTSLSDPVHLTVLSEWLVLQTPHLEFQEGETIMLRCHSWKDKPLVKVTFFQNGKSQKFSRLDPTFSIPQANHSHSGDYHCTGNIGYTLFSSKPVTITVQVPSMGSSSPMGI

[2] = biological target: T2, Recombinant Human Fc gamma RI/CD64 Protein (R&D systems) (human, UniProt P12314 16-288); assay: SPR (Biacore T200); His-tagged FcγRI captured on anti-His chip, antibody as analyte 0.3-4.7 µM
T2 construct: His-tagged; also called human FcγRI; His-tagged human FcγRI

[3] = biological target: T3, Recombinant Human Fc gamma RIIB/C (CD32b/c) Protein (R&D systems) (human, UniProt P31994 46-217); assay: SPR (Biacore T200); FcγRIIb/c immobilised directly on CM5, antibody as analyte 0.9-4.7 µM
T3 construct: Bought protein; also called human FcγRIIb/c
T3 sequence (looked up): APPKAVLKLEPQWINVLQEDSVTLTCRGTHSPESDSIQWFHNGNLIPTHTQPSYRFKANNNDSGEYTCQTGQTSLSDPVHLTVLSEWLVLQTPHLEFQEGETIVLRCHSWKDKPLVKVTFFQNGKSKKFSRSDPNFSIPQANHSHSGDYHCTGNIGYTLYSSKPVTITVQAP

[4] = biological target: T2, Recombinant Human Fc gamma RI/CD64 …; assay: SPR (Biacore T200) as in Test Example 15; RU at 4.7 µM conjugate
[5] = biological target: T1, Recombinant Human Fc gammaRIIA/CD32a …; assay: SPR (Biacore T200) as in Test Example 16; RU at 4.7 µM conjugate
[6] = biological target: T3, Recombinant Human Fc gamma RIIB/C …; assay: SPR (Biacore T200) as in Test Example 17; RU at 4.7 µM conjugate

Measured: binding result

T2 sequence (P12314 16-288 limits assumed): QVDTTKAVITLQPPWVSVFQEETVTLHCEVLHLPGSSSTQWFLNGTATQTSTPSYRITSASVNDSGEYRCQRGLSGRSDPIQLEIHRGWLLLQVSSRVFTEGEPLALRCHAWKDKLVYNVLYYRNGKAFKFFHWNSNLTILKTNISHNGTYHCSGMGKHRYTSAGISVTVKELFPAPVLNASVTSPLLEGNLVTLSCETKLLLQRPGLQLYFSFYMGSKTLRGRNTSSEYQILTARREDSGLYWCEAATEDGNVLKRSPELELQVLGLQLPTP

B1: anti-EGFR antibody B (Vectibix) (antibody, human IgG2, kappa)
heavy: QVQLQESGPGLVKPSETLSLTCTVSGGSVSSGDYYWTWIRQSPGKGLEWIGHIYYSGNTNYNPSLKSRLTISIDTSKTQFSLKLSSVTAADTAIYYCVRDRVTGAFDIWGQGTMVTVSSASTKGPSVFPLAPCSRSTSESTAALGCLVKDYFPEPVTVSWNSGALTSGVHTFPAVLQSSGLYSLSSVVTVPSSNFGTQTYTCNVDHKPSNTKVDKTVERKCCVECPPCPAPPVAGPSVFLFPPKPKDTLMISRTPEVTCVVVDVSHEDPEVQFNWYVDGVEVHNAKTKPREEQFNSTFRVVSVLTVVHQDWLNGKEYKCKVSNKGLPAPIEKTISKTKGQPREPQVYTLPPSREEMTKNQVSLTCLVKGFYPSDIAVEWESNGQPENNYKTTPPMLDSDGSFFLYSKLTVDKSRWQQGNVFSCSVMHEALHNHYTQKSLSLSPGK
light: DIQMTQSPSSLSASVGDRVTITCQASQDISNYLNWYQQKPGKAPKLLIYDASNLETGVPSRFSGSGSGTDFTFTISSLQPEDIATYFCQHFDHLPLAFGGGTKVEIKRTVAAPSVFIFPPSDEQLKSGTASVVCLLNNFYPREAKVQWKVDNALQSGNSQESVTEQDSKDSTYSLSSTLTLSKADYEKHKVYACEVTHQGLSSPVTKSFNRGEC
notes: Commercial Vectibix (IgG2), buffer-exchanged into HBS-EP+; also called anti-EGFR antibody (IgG2); IgG2
binds: [1] | [2] | [3]

B2: anti-EGFR antibody B-CDN conjugate 2 (antibody, human IgG2, kappa)
heavy: QVQLQESGPGLVKPSETLSLTCTVSGGSVSSGDYYWTWIRQSPGKGLEWIGHIYYSGNTNYNPSLKSRLTISIDTSKTQFSLKLSSVTAADTAIYYCVRDRVTGAFDIWGQGTMVTVSSASTKGPSVFPLAPCSRSTSESTAALGCLVKDYFPEPVTVSWNSGALTSGVHTFPAVLQSSGLYSLSSVVTVPSSNFGTQTYTCNVDHKPSNTKVDKTVERKCCVECPPCPAPPVAGPSVFLFPPKPKDTLMISRTPEVTCVVVDVSHEDPEVQFNWYVDGVEVHNAKTKPREEQFNSTFRVVSVLTVVHQDWLNGKEYKCKVSNKGLPAPIEKTISKTKGQPREPQVYTLPPSREEMTKNQVSLTCLVKGFYPSDIAVEWESNGQPENNYKTTPPMLDSDGSFFLYSKLTVDKSRWQQGNVFSCSVMHEALHNHYTQKSLSLSPGK
light: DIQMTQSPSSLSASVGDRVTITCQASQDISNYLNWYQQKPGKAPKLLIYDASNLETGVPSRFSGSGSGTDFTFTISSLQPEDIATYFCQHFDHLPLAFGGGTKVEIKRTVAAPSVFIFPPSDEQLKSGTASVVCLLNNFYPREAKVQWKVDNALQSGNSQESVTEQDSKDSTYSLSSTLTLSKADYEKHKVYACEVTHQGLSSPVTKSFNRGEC
modifications: CDN drug-linker 17a conjugated through the remodeled N297 glycan (MSG1 type); average number of conjugated drugs 1.9
notes: Antibody-drug conjugate of Vectibix (IgG2), DAR about 2; Light chain is inferred as for m1; also called antibody-drug conjugate 8
binds: [4] | [5] | [6]

B3: anti-EGFR antibody 1-CDN conjugate 1 (antibody, human IgG1, kappa, L234A L235A)
heavy: QVQLQESGPGLVKPSETLSLTCTVSGGSVSSGDYYWTWIRQSPGKGLEWIGHIYYSGNTNYNPSLKSRLTISIDTSKTQFSLKLSSVTAADTAIYYCVRDRVTGAFDIWGQGTMVTVSSASTKGPSVFPLAPSSKSTSGGTAALGCLVKDYFPEPVTVSWNSGALTSGVHTFPAVLQSSGLYSLSSVVTVPSSSLGTQTYICNVNHKPSNTKVDKRVEPKSCDKTHTCPPCPAPEAAGGPSVFLFPPKPKDTLMISRTPEVTCVVVGVSHEDPEVKFNWYVDGVEVHNAKTKPREEQYNSTYRVVSVLTVLHQDWLNGKEYKCKVSNKALPAPIEKTISKAKGQPREPQVYTLPPSREEMTKNQVSLTCLVKGFYPSDIAVEWESNGQPENNYKTTPPVLDSDGSFFLYSKLTVDKSRWQQGNVFSCSVMHEALHNHYTQKSLSLSPGK
light: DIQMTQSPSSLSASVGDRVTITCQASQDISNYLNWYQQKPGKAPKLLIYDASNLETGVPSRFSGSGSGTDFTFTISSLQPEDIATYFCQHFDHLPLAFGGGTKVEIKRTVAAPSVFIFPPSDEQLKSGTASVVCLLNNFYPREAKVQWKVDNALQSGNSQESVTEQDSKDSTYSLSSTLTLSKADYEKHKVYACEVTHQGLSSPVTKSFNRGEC
modifications: CDN drug-linker 17a conjugated through the remodeled N297 glycan (SG type); average number of conjugated drugs 3.7
notes: also called modified anti-EGFR antibody 1-CDN conjugate 1; antibody-drug conjugate 1
binds: [4] | [5] | [6]

B4: modified anti-EGFR antibody 1 (antibody, human IgG1, kappa, L234A L235A)
heavy: QVQLQESGPGLVKPSETLSLTCTVSGGSVSSGDYYWTWIRQSPGKGLEWIGHIYYSGNTNYNPSLKSRLTISIDTSKTQFSLKLSSVTAADTAIYYCVRDRVTGAFDIWGQGTMVTVSSASTKGPSVFPLAPSSKSTSGGTAALGCLVKDYFPEPVTVSWNSGALTSGVHTFPAVLQSSGLYSLSSVVTVPSSSLGTQTYICNVNHKPSNTKVDKRVEPKSCDKTHTCPPCPAPEAAGGPSVFLFPPKPKDTLMISRTPEVTCVVVGVSHEDPEVKFNWYVDGVEVHNAKTKPREEQYNSTYRVVSVLTVLHQDWLNGKEYKCKVSNKALPAPIEKTISKAKGQPREPQVYTLPPSREEMTKNQVSLTCLVKGFYPSDIAVEWESNGQPENNYKTTPPVLDSDGSFFLYSKLTVDKSRWQQGNVFSCSVMHEALHNHYTQKSLSLSPGK
light: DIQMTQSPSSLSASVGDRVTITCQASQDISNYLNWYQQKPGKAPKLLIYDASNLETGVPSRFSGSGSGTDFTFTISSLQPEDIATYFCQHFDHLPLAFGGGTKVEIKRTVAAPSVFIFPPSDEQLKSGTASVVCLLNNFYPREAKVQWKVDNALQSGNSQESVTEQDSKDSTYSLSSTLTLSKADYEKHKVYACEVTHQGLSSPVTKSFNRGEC
notes: IgG1 with L234A/L235A/D265G (LALA-DG) introduced into anti-EGFR antibody A; also called LALA-DG; LALA-DG mutant anti-EGFR antibody
binds: [1] | [2] | [3]

B5: anti-EGFR antibody 1-CDN conjugate 2 (antibody, human IgG1, kappa, L234A L235A)
heavy: QVQLQESGPGLVKPSETLSLTCTVSGGSVSSGDYYWTWIRQSPGKGLEWIGHIYYSGNTNYNPSLKSRLTISIDTSKTQFSLKLSSVTAADTAIYYCVRDRVTGAFDIWGQGTMVTVSSASTKGPSVFPLAPSSKSTSGGTAALGCLVKDYFPEPVTVSWNSGALTSGVHTFPAVLQSSGLYSLSSVVTVPSSSLGTQTYICNVNHKPSNTKVDKRVEPKSCDKTHTCPPCPAPEAAGGPSVFLFPPKPKDTLMISRTPEVTCVVVGVSHEDPEVKFNWYVDGVEVHNAKTKPREEQYNSTYRVVSVLTVLHQDWLNGKEYKCKVSNKALPAPIEKTISKAKGQPREPQVYTLPPSREEMTKNQVSLTCLVKGFYPSDIAVEWESNGQPENNYKTTPPVLDSDGSFFLYSKLTVDKSRWQQGNVFSCSVMHEALHNHYTQKSLSLSPGK
light: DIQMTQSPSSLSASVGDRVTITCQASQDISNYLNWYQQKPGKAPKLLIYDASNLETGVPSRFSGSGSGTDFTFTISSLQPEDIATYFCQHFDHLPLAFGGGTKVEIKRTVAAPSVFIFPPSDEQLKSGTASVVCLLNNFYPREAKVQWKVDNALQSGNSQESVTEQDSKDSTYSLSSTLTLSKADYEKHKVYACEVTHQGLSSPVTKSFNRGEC
modifications: CDN drug-linker 17a conjugated through the remodeled N297 glycan (MSG1 type); average number of conjugated drugs 1.9
notes: also called modified anti-EGFR antibody 1-CDN conjugate 2; antibody-drug conjugate 2
binds: [4] | [5] | [6]
